# Molecular target: UNC-119 tagged with the C-terminal fragment of Venus (C. elegans) (UniProt Q10658)
# Assay: split reporter (BiFC, NanoBiT); BiFC in vivo in transgenic C. elegans (AWC neurons); ODR-3 tagged with VN, partner tagged with VC; read-out is the percentage of animals showing Venus fluorescence
# Sequence of UniProt Q10658 (Q10658 whole entry, the tested form may be a part): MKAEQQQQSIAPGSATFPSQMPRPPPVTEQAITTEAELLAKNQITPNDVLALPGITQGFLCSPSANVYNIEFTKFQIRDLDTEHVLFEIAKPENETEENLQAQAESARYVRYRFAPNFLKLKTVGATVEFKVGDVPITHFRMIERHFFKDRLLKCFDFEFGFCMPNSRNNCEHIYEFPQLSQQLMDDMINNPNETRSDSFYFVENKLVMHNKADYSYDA
row,percent of animals with BiFC,Substance
1,51%,ODR-3^A328P tagged with the N-terminal Venus fragment (from UniProt Q18434 1-356) (natural protein)
2,81%,ODR-3^WT tagged with the N-terminal Venus fragment (from UniProt Q18434 1-356) (natural protein)

# — PMC12693566
